Measurements: paper PMC3750045, “Human RNase H1 Is Associated with Protein P32 and Is Involved in Mitochondrial Pre-rRNA Processing” (PLoS ONE, 2013)

B2: GST-P32 fusion protein (natural protein, human, UniProt Q07021 74-282, looked up)
chain: LHTDGDKAFVDFLSDEIKEERKIQKHKTLPKMSGGWELELNGTEAKLVRKVAGEKITVTFNINNSIPPTFDGEEEPSQGQKVEEQEPELTSTPNFVVEVIKNDDGKKALVLDCHYPEDEVGQEDEAESDIFSIREVSFQSTGESEWKDTNYTLNTDSLDWALYDHLMDFLADRGVDNTFADELVELSTALEHQEYITFLEDLKSFVKSQ
B3: N-terminal His-tagged human RNase H1 (recombinant) (enzyme, UniProt O60930 1-286, looked up)
chain: MSWLLFLAHRVALAALPCRRGSRGFGMFYAVRRGRKTGVFLTWNECRAQVDRFPAARFKKFATEDEAWAFVRKSASPEVSEGHENQHGQESEAKASKRLREPLDGDGHESAEPYAKHMKPSVEPAPPVSRDTFSYMGDFVVVYTDGCCSSNGRRRPRAGIGVYWGPGHPLNVGIRLPGRQTNQRAEIHAACKAIEQAKTQNINKLVLYTDSMFTINGITNWVQGWKKNGWKTSAGKEVINKEDFVALERLTQGMDIQWMHVPGHSGFIGNEEADRLAREGAKQSED
notes: human RNase H1, 286 residues (domains printed as aa1-72, aa73-135, aa136-286), in the pET 3C vector; also called His-H1; His-tag RNase H1; source: E. coli BL21 (DE3), lysed in 6 M guanidine, purified (Ni-NTA agarose)

Assays:
[1] = biological target: T1, His-RNase H1 (Homo sapiens, UniProt O60930 1-286); assay: EMSA; 2 mM Mg2+, 4 C; EMSA: 20 mM Tris pH 7.0, 20 mM NaCl, 2 mM MgCl2, 5% glycerol, 30 min at 4 C; cleavage buffer (described for IP activity assays; competition conditions by reference): 20 mM Tris pH 7.5, 50 mM NaCl, 2 mM MgCl2, 5 mM 2-mercaptoethanol, 37 C; conditions: protein: recombinant; tags: N-terminal His; label: 32P (5' end)
T1 sequence: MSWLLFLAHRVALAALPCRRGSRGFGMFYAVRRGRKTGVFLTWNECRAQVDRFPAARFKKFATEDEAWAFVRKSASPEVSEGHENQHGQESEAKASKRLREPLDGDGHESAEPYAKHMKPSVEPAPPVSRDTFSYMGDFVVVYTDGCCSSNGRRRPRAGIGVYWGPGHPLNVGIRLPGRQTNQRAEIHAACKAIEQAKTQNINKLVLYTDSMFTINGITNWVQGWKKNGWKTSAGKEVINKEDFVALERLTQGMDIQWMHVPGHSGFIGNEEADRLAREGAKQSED

[2] = biological target: B3; assay: cell-based or functional assay
[3] = biological target: B2; assay: pull-down; fixed amount of GST-P32 on GST beads, increasing amounts of RNase H1 (0.025–2.0 µg/400 µl), room temperature 15–20 minutes; glutathione elution; bound RNase H1 and P32 quantified by Western blot against known amounts; conditions: both partners purified

B1: Duplex B, non-cleavable Apo B 2'-fluoro RNA/DNA heteroduplex (XNA)
RNA: GGAUGGUAGCACAAGUGACA
DNA: TGTCCTTGTGCTACCATCC
modifications: strand 1 uniformly 2'-fluoro RNA; strand 2 DNA
- binding result [1]: binds

Binder: B2
- increase in Km of RNase H1 for the RNA/DNA duplex with GST-P32 at H1:P32 ratios of 1:1 and 1:5, against RNase H1 with GST control [2]: ~5 fold
- increase in kcat of RNase H1 cleavage of the RNA/DNA duplex with GST-P32, against control RNase H1 [2]: ~2 fold

Binder: B3
- stoichiometry N [3]: ~1.43 molecules of RNase H1 to 1 molecule of P32
